Target: GST–Rac1a (full-length Dictyostelium Rac1a as a GST fusion, GTP-bound form) (Dictyostelium) (UniProt P34144)

| fold activation of the GTP hydrolysis rate of GST–Rac1a (10 µM) by 2.5 µM GST–GAP, 10 min at 20°C, free phosphate by CytoPhos; Rac1a alone normalized to 1.0 | fold activation of the GTP hydrolysis rate of GST–Rac1a (10 µM) by 2.5 µM GST–GAP-RΔA, 10 min at 20°C, free phosphate by CytoPhos; Rac1a alone normalized to 1.0 | Substance |
| --- | --- | --- |
| 5.8 fold |  | GST–GAP (isolated GAP domain of CARMIL-GAP, residues 715–858, as a GST fusion) (domain or fragment) |
|  | 1.74 fold | GST–GAP-RΔA (GAP domain of CARMIL-GAP with the conserved arginine changed to alanine, as a GST fusion) (domain or fragment) |
